From publication PMC12302650, “A tubulin-binding protein that preferentially binds to GDP-tubulin and promotes GTP exchange” (The Journal of Biological Chemistry, 2025)

B1: BuGZ-NTD (domain or fragment)
chain: not shown
notes: BuGZ (ZNF207), Xenopus laevis, UniProt Q7ZXV8; the N-terminal 92 amino acids, which contain the two zinc fingers; The discussion says the zinc finger domain of BuGZ can be produced in bacteria; also called BuGZ's N-terminal domain; N-terminal 92 amino acids of BuGZ; source: purified
B2: Xenopus laevis BuGZ (Bub3-interacting and GLEBS motif-containing protein ZNF207), full-length wild type (natural protein)
chain: not shown
notes: BuGZ (ZNF207), Xenopus laevis, UniProt Q7ZXV8; full-length wild type; also called wild-type BuGZ; full-length BuGZ; source: purified

Columns and labels:
[1] = molecular target: T1, GDP-tubulin (biotinylated α/β-tubulin heterodimer with GDP-bound β-tubulin) (UniProt Q71U36 1-451; Q9H4B7 1-451, biotinylated tubulin (chain and residues not stated) | biotinylated tubulin (chain and residues not stated)); assay: pull-down; supernatant depletion at equilibrium, same assay as for GTP-tubulin but with bead-bound GDP-tubulin; BuGZ construct (or mEGFP control) in solution; fit with Equation S2 for wild-type BuGZ; conditions: both partners purified
[2] = molecular target: GTP-tubulin (biotinylated α/β-tubulin heterodimer with GTP-bound β-tubulin) (UniProt Q71U36 1-451; Q9H4B7 1-451, biotinylated tubulin (chain and residues not stated) | biotinylated tubulin (chain and residues not stated)); assay: pull-down; supernatant depletion at equilibrium; varying concentrations of biotinylated GTP-tubulin on streptavidin-coated magnetic beads; BuGZ construct (or mEGFP control) in solution, BuGZ 1.19 μM; 4 °C; nocodazole present; depletion from the supernatant measured by immunoblotting; conditions: both partners purified
[3] = molecular target: T1, GDP-tubulin (biotinylated α/β-tubulin …); assay: cell-based or functional assay
[4] = molecular target: taxol-stabilized microtubules (polymerized with a 1:10 mixture of biotin-labeled: unlabeled GTP-tubulin) (UniProt Q71U36 1-451; Q9H4B7 1-451, biotin on part of the tubulin (1:10 biotin-labeled: unlabeled; chain and residues not stated) | biotin on part of the tubulin (1:10 biotin-labeled: unlabeled; chain and residues not stated)); assay: pull-down; supernatant depletion at equilibrium; varying concentrations of biotin-containing taxol-stabilized microtubules on streptavidin-coated magnetic beads; BuGZ 1.19 μM; 4 °C; BuGZ left in the supernatant measured by quantitative immunoblotting; fit with a rectangular hyperbola (Equation S1); conditions: both partners purified

Binder	Kd [1]	Kd [2]	GTP α-32P incorporation into 100 μM GDP-tubulin at equilibrium (1:1 GTP:GDP, 1.19 μM BuGZ, room temperature), increase relative to the control condition [3]	Kd [4]
B1	1470 nM	7140 nM		
B2	45.3 nM	477 nM	60.1%	9450 nM
